# Laboratory results reported in publication PMC8240970, “Orally delivered polycurcumin responsive to bacterial reduction for targeted therapy of inflammatory bowel disease” (Drug Delivery, 2017).
# Marks after values point to notes of the source that are not given here.
# How the values were obtained:
# Caco-2 cells [1] = experiment: LDH release assay; conditions: 25 μg/mL Cur, within 2 h, versus control
# Experimental: A lactate dehydrogenase (LDH) assay kit (Beyotime, Haimen, China) was used to determine the ability of PCur to destroy cell membranes. Briefly, Caco-2 cells seeded in a 96-well plate were incubated with Cur solution and PCur at 25 μg/mL concentration of Cur for 2 h, and serum-free medium was used as a control. After 1 h of incubation, 20 μL LDH release medium was added, followed by 1 h of co-incubation. One hundred and twenty microliter supernatant was transferred to a new plate at a determined time interval, followed by the addition of 60 μL LDH test medium and incubated for 30 min with gentle shaking. Finally, the absorption was measured at 490 nm on a microplate reader (Bio-Rad 500, Hercules, CA).
# Caco-2 cells [2] = experiment: In vitro cytotoxicity by MTT assay; conditions: 1 to 100 μg/mL Cur, 2 h incubation
# Experimental: In vitro cytotoxicity of PCur and Cur solution was assessed in Caco-2 cells by MTT assay. Caco-2 cells were seeded at a density of 1 × 10^5 cells/mL in 100 μL DMEM culture medium in a 96-well plate at 37 °C and 5% CO2. After 24 h of incubation, Caco-2 cells were exposed to Cur and PCur solution with different Cur concentrations for 2 h. Meanwhile, serum-free medium incubation without drug was utilized as a control. MTT solution (20 μL, 5 mg/mL in PBS) was then added to each well, and the cells were further incubated for 4 h. The supernatant was removed and 100 μL of DMSO was introduced to each well to dissolve formazan crystals. Optical density (OD) was measured with a microplate reader (Thermo Scientific, Waltham, MA) at 570 nm. The experiments were repeated at least four times. Cell viability (%) was calculated as the ratio of OD in test samples to OD in control samples.
# IL-6 = IL-6 level in colonic tissue by ELISA, DSS-induced IBD mice; format: in vivo, female C57BL/6 mice; conditions: oral, Cur 50 mg/kg
# Experimental: (§1) Animal experiments were performed in female C57BL/6 mice (eight weeks, 18–20 g). Colitis was induced by feeding mice with a 3% (wt./vol) DSS solution as drinking water for seven days. The daily evaluation of mice was based on changes in body weight and development of the clinical symptoms of colitis. Disease activity index (DAI) was calculated according to the parameter previously reported (Li et al., [2015]). […] The dosage of Cur was set at 50 mg/kg. Mice were sacrificed on day 7, and histological assessment of colonic inflammation was carried out by hematoxylin and eosin (H&E) staining of 5 μm colonic tissue sections, observed by microscopy (×20 magnification). The samples were scored for inflammatory infiltration (0–3), epithelial abnormality (0–3) and crypt damage (0–3) and then the values of the three variables were summed as an indicator of inflamed degree (Magro et al., [2013]). The levels of IL-6 and TNF-α in homogenized colonic tissue were measured by quantitative enzyme-linked immunosorbent assay (ELISA) kits according to manufacturer’s instructions (R&D Systems Inc., Minneapolis, MN). The final values of IL-6 and TNF-α were expressed as pg/mg or ng/mg protein (Qiao et al., [2014]).
# TNF-α = TNF-α level in colonic tissue by ELISA, DSS-induced IBD mice; format: in vivo, female C57BL/6 mice; conditions: oral, Cur 50 mg/kg
# Experimental: as §1
# DSS-induced IBD = experiment: Pharmacodynamics in a murine DSS-induced IBD model (body weight, DAI, colon length, histology); format: in vivo, female C57BL/6 mice; conditions: for disease activity index (DAI) / recovery of shortened colon length / weight loss: 3% DSS for seven days, daily gavage, Cur 50 mg/kg; for weight loss: versus DSS or Cur suspension
# Experimental: as §1, with “[2013]).” for “[2013]). The levels of IL-6 and TNF-α in homogenized colonic tissue were measured by quantitative enzyme-linked immunosorbent assay (ELISA) kits according to manufacturer’s instructions (R&D Systems Inc., Minneapolis, MN). The final values of IL-6 and TNF-α were expressed as pg/mg or ng/mg protein (Qiao et al., [2014]).”
# [3] = Drug-loading content (Cur content in PCur); format: physicochemical
# [4] = In vitro release of PCur under different pH conditions; format: physicochemical
# Experimental: Effect of pH values on drug release was also evaluated in the following buffers: hydrochloric acid/potassium chloride (pH 1.2), acetic acid/sodium acetate (pH 6.5) and PBS (pH 7.4). Buffer selection was based on the normal variations of the pH in the GIT from the stomach (pH 1.5) and the proximal small intestine (pH 6.0–6.8) to the ileocecal region (pH 7.3) (Hua et al., [2015]). One milliliter of sample (containing 1.2 mg of Cur) was placed in a dialysis bag, immersed into each media containing 0.1% (w/v) Tween 80 for drug release.
# MDA content = experiment: Malondialdehyde (MDA) content of colon of DSS-induced IBD mice; format: in vivo, female C57BL/6 mice; conditions: oral, Cur 50 mg/kg
# Experimental: as §1, with “Lipid peroxidation was evaluated by measuring the MDA content” for “The levels”, “the colon” for “IL-6 and TNF-α in homogenized colonic tissue were measured by quantitative enzyme-linked immunosorbent assay (ELISA) kits”, “standard procedure protocol described in MDA Assay Kit (Beyotime, Haimen, China). In short, the colorimetric determination of MDA is based on the reaction of the reactive aldehyde with thiobarbituric acid at low pH (2–3) and temperature of 95 °C for 45 min.” for “manufacturer’s instructions (R&D Systems Inc., Minneapolis, MN).”, “pinkish resultant was extracted by n-butanol,” for “final values of IL-6”, “the absorbance was determined at 535 and 520 nm spectrophotometrically. […]” for “TNF-α were expressed as pg/mg or ng/mg protein (Qiao et al., [2014]).”
# [5] = In vitro stability testing of PCur (size by DLS, morphology by TEM); format: physicochemical; conditions: 37 °C
# Description: A small portion of solution was collected at predetermined time points to measure the size distribution of PCur conjugate by DLS.
# [6] = Pharmacokinetic study after oral administration; set-up: species or system Sprague–Dawley (SD) rats; conditions: rat, in vivo, 50 mg/kg
# Experimental: Pharmacokinetics of PCur and Cur suspension were tested in SD rats, which were randomly divided into two study groups with six in each group. […] Three hundred microliter of blood samples were collected at 5, 10, 15, 30 and 45 min, 1, 2, 4, 8, 12 and 24 h post oral gavage and centrifuged at 12 000 rpm for 10 min. The supernatant plasma was collected and stored at −20 °C for UPLC–MS/MS analysis. The concentration of Cur was determined by a Waters ACQUITY UPLC system using a Xevo Triple Quadrupole MS equipped with an electrospray ionization (ESI) interface (Waters Co., Milford, MA). One hundred microliter plasma was mixed with 50 μL chloramphenicol (IS) and 50 μL acetonitrile, followed by vortexing for 3 min, and centrifuged at 12 000 rpm for 10 min. […] An aliquot of 5 μL was injected into the UPLC–MS/MS for analysis. Pharmacokinetic parameters were calculated using DAS 2.1 software (BioGuider Co., Shanghai, China).
# [7] = In vitro release of Cur from PCur in pH 7.4 PBS with or without GSH; format: physicochemical
# MPO activity = experiment: Myeloperoxidase (MPO) activity in colon of DSS-induced IBD mice; format: in vivo, female C57BL/6 mice; conditions: oral, Cur 50 mg/kg
# Experimental: as §1, with “[2013]). Neutrophil infiltration into the colon can be quantified by measuring MPO activity. […]” for “[2013]).”, “homogenate was then sonicated for 10 s, freeze-thawed three times,” for “levels of IL-6”, “centrifuged at 12 000 rpm for 15 min. The supernatant was then added to 1 mg/mL o-dianisidine hydrochloride and 0.0005% hydrogen peroxide, and the change” for “TNF-α”, “absorbance at 460 nm was measured.” for “homogenized colonic tissue were measured by quantitative enzyme-linked immunosorbent assay (ELISA) kits according to manufacturer’s instructions (R&D Systems Inc., Minneapolis, MN). The final values of IL-6 and TNF-α were expressed as pg/mg or ng/mg protein (Qiao et al., [2014]).”
# Caco-2 cell monolayer = experiment: Transcellular study, apparent permeability coefficient; format: in vitro ADME
# Experimental: A 400 μL of culture medium was added to the apical (AP) side, and 600 μL was added to the basolateral (BL) side. The medium in both the AP and BL sides was changed every two days for the first week and every day thereafter. After 21 days of incubation, the integrity of the cell monolayers was evaluated by measuring transepithelial electrical resistance (TEER) values using a Millicell® electrical resistance system (Millipore, Billerica, MA). When the TEER value of inserts exceeded […], indicating cell monolayers were integrated and tight junctions were intact, they were selected for further transport studies. For transcellular research, the culture medium in the AP and BL side was removed and changed by HBSS. […] Six hundred microliter of fresh HBSS was added to the BL side. […] One hundred microliter of sample was mixed with 50 μL chloramphenicol (IS) and 50 μL acetonitrile, vortexed and centrifuged. The concentration of Cur in supernatant was determined by UPLC–MS/MS. At the end of the experiment, TEER values were assayed to estimate the integrity of the cell monolayers. The apparent permeability coefficient (Papp) for Cur was calculated according to the following equation: Papp=(dQ/dt)/(A×C0) where the dQ/dt was the drug permeation rate, A was the surface area of polycarbonate membrane and C0 was the initial concentration of Cur in AP side.
# [8] = Particle size and zeta potential by dynamic light scattering; format: physicochemical; conditions: in water, 25 °C
compound,measurement,setting,value
"COc1cc(/C=C/C(=O)CC(=O)/C=C/c2ccc(O)c(OC)c2)ccc1O [Cur solution, Curcumin]",LDH leakage,Caco-2 cells [1],no significant LDH leakage
same,cellular viability,Caco-2 cells [2],neither Cur solution nor PCur induced any significant changes
"O=C(O)c1cc(/N=N/c2ccc(S(=O)(=O)Nc3ccccn3)cc2)ccc1O [SSZ, sulfasalazine, reference compound]",inhibition of the production of IL-6 in colonic tissue,IL-6,strongest efficacy
same,inhibition of the production of TNF-α in colonic tissue,TNF-α,strongest efficacy
same,disease activity index (DAI),DSS-induced IBD,successfully mitigated
same,recovery of shortened colon length,DSS-induced IBD,strongest efficacies
same,weight loss,DSS-induced IBD,less weight loss
PEG-ss-curcumin [PCur],inhibition of the production of IL-6 in colonic tissue,IL-6,strongest efficacy
same,loading content,[3]; calculated from integrated areas of 1H NMR spectra,12.5%
same,loading content,[3]; determined by fluorescence spectra,~14.6%
same,inhibition of the production of TNF-α in colonic tissue,TNF-α,strongest efficacy
same,Cur released,"[4]; buffer of pH 6.5, 24 h",less than 25%
same,Cur released,"[4]; buffer of pH 6.5, first 2 h",10%
same,pH-responsive release characteristic,"[4]; pH 7.4, 6.5 and 1.2",No significant pH-responsive release characteristic
same,MDA content in colonic tissue,MDA content,strongly decreased
same,change of particle size distribution,[5]; pH 1.2 and pH 7.4 PBS,little change
same,change of mean diameter,[5]; pH 7.4 PBS with 10 mM GSH,substantially increased
same,AUC0–24 h,[6],202.05 ± 6.72^b h ng/mL
same,AUC0–∞,[6],223.52 ± 5.25^b h ng/mL
same,AUC(0 − 24) increase relative to Cur suspension,[6],8.63 times
same,Cmax,[6],23.35 ± 0.96^b ng/mL
same,Cmax relative to Cur suspension,[6],3.41 fold
same,MRT0–∞,[6],9.60 ± 2.28^a h
same,T1/2,[6],6.77 ± 1.40 h
same,Tmax,[6],0.50 ± 0.25^a h
same,Cur released,"[7]; pH 7.4 PBS with 10 mM GSH, in 2 h",~30%
same,Cur released,"[7]; pH 7.4 PBS with 10 mM GSH, within 24 h",53%
same,Cur released,"[7]; pH 7.4 buffer, without or with 10 μM GSH, first 2 h",less than 10%
same,Cur released,"[7]; pH 7.4 buffer, without or with 10 μM GSH, within 24 h",approximately 15%
same,MPO activity in colonic tissue,MPO activity,strongly decreased
same,apparent permeability coefficient (Papp) of Cur,Caco-2 cell monolayer,2.38 ± 0.29 × 10^−6 cm/s
same,average particle size,[8]; DLS,134.4 ± 4.2 nm
same,Zeta potential,[8],−3.3 ± 1.2 mV
same,disease activity index (DAI),DSS-induced IBD,successfully mitigated
same,recovery of shortened colon length,DSS-induced IBD,strongest efficacies
same,weight loss,DSS-induced IBD,less weight loss
same,histological examination of colon (H&E),"DSS-induced IBD; day 7, versus DSS mice receiving PBS or Cur suspension","intact epitheliums, well-defined crypt structures and relatively low levels of neutrophil invasion"
